Experimental findings from article PMC3790011, “Transcription Factor Reb1p Regulates DGK1-encoded Diacylglycerol Kinase and Lipid Metabolism in Saccharomyces cerevisiae*” are described below.

For series [1], the target named is T1, Reb1p (His6-Reb1p) (Saccharomyces cerevisiae RS453, UniProt P21538 1-810).
T1 sequence: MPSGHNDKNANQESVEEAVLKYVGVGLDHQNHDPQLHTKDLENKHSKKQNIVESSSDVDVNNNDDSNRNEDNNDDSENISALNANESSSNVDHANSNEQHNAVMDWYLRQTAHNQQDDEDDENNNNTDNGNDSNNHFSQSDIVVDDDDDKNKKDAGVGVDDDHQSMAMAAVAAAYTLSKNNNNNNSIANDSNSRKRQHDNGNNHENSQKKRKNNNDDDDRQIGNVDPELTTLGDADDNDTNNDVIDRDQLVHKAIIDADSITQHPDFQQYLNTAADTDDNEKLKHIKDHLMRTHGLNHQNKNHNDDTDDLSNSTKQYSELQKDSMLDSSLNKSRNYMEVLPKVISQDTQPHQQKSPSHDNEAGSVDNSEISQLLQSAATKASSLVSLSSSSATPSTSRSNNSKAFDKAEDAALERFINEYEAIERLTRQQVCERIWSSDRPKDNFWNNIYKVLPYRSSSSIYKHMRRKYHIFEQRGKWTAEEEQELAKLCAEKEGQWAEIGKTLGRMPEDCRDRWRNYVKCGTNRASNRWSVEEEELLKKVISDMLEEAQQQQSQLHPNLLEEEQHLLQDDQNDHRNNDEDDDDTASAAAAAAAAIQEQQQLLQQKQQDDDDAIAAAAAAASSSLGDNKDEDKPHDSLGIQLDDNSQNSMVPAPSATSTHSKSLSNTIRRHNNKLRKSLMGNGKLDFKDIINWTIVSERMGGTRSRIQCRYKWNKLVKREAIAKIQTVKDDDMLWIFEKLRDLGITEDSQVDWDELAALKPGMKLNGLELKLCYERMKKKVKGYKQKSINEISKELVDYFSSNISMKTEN
Briefly: EMSA; 10 mM Mg2+; 0.2-1.0 ug Reb1p, 4 pmol probe; 10 mM Tris-HCl pH 8.0, 10 mM MgCl2, 50 mM KCl, 1 mM DTT, 0.025 mg/ml poly(dI-dC), 0.2 mg/ml BSA, 0.04% IGEPAL CA-630, 10% glycerol; 15 min, room temperature; 5% PAGE in 0.5x TBE. As to conditions: protein: recombinant; tags: N-terminal His6 (pET-15b); label: 32P (alpha-32P dTTP, Klenow); blunt. (A gel shift assay detects complexes by their altered migration in electrophoresis.)

Series [2] has as its target T1, Reb1p (His6-Reb1p). Briefly: competition; 10 mM Mg2+; 0.5 ug Reb1p, 4-16 pmol unlabeled competitor against 4 pmol labeled wild type probe; 10 mM Tris-HCl pH 8.0, 10 mM MgCl2, 50 mM KCl, 1 mM DTT, 0.025 mg/ml poly(dI-dC), 0.2 mg/ml BSA, 0.04% IGEPAL CA-630, 10% glycerol; 15 min, room temperature; 5% PAGE in 0.5x TBE. As to conditions: protein: recombinant; tags: N-terminal His6 (pET-15b); blunt.

B1: DGK1 promoter Reb1p site wild type (dsDNA)
DNA 1: AGGGTCCATAGCGGGTAACAAATTATTGG
DNA 2: CCAATAATTTGTTACCCGCTATGGACCCT
Consider B1, for which the binding result in series [1] was “binds”.

B2: unlabeled DGK1 wild type competitor (dsDNA)
DNA 1: AGGGTCCATAGCGGGTAACAAATTATTGG
DNA 2: CCAATAATTTGTTACCCGCTATGGACCCT
Consider B2, for which the binding result in series [2] is given as “binds”.
